Results from article PMC11750101.

Target: RBD-HR/trimer (SARS-CoV-2) (UniProt P0DTC2)
Experiment: SEC

RBD-HR/trimer (from UniProt P0DTC2)
stoichiometry N: 3
